Test results published in US20060067940A1 (WASHINGTON UNIVERSITY, published 2006).

Target: T1, WNV E protein on virions of WNV New York strain (lineage I) (West Nile virus (New York strain), UniProt Q9Q6P4 291-791)
T1 sequence (looked up): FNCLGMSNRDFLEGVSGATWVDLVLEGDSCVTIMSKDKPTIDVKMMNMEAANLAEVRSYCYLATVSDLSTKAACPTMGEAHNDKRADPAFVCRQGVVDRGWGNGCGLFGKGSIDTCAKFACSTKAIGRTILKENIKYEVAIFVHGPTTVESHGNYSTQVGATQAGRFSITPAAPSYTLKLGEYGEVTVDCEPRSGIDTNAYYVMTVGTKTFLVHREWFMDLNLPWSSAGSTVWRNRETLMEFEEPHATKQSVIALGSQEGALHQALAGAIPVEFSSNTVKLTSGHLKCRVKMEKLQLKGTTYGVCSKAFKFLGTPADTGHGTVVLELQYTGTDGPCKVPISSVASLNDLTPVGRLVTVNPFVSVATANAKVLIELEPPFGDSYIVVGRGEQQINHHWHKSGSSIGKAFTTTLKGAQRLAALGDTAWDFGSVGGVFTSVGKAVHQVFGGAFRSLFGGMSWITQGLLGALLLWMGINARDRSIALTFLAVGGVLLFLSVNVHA
Experiment: cell-based or functional assay

B1: WNV E16 (monoclonal antibody produced by hybridoma clone E16 C4 E4, ATCC PTA-6050) (antibody, V domains shown)
VH: QVQLQQSGSELMKPGASVQISCKATGYTFSDYWIEWVKQRPGHGLEWIGDILCGTGRTRYNEKLKAMATFTADTSSNTAFMQLSSLTSEDSAVYYCARSASYGDYADYWGHGTTLTVSS
VL: DIVMTQSHKFMSTSVGDRVSITCKASQDVSTAVAWYQQKPGQSPKLLISWASTRHTGVPDRFTGSGSGTDYTLTISSVQAEDLALYYCQQHYTTPLTFGAGTKLELK
PRNT assay, potency against human γ-globulin preparation: ~1000 fold
